The nature of the data set: soluble on expression in E. coli; label from the status in PepcDB or PDB records.
Regarding “MGSDKIHHHHHHGCSDSMTEESDSEQRIPIVFGTQVATRAVVENNKEGMDNFTLWGWVRESDGPKLFFDAVPVTPSGNYGEKRFWAVGRPYGFYAVHPEKMKENNIATEVSCNDKGELRVTGFDSSEMGKGAVDLMTAAKTDVVYEGGGMMAPVLLAFKHELAQVKFTVCTGEKQAEVSDIRLLGVDYKGDLLWTPEESTWQNRINCTEEGTPFVRSESVRIEAGSSVTVLDSVLLLPQPVTEHVAVTFKYAYAGKPLSEAKEAMVYLDVAQTTEWIKSSTYHYKITLPAGDADITVKVSVGDWDSRDISADW”, the “soluble on expression in E. coli” value is “not soluble”. In the case of “MEDNRVEEDGEVKSDVGTSSDEKASDSEVEKRQRTDSERSGKDKKKKHKKEKKHKKDKKHKKEKKHKREKEVEMENDGPPAKKRTLEEVDTKKDESKKKEAKESSRNNEDELRNPPRRERSKSAERRDRELRERRDAERRDRSLSKERRLIQRKREDNRRDPRAHEGNRRRDRTPERFRNNRDRRDRDGRREDRHRRSPDRRRDSDRKREDGKRKDESKDVEWNLDSDSDDEQKKIEAARKRRIQIIKKIEGHTEENTPRDSSTPRSDTIGDKKTDESEDSSSDSEDDEDDRKLAEAKDLIKSTRFGSEQGSGASTPVSIQSDNDTPTDFFSGLRDKMVHMKDADEHNVDEVLQRGKDEEYREDWHTQLKEQEKREEEEKKKKLEAEAAAEAAKKKKQEEDDTGFDMFADNEELPQDSTTIDGHSGAVHDTLKDNWDDVEGYYRVRIGELLDTRYRVVGFTGAGVFGNVCRCNDQTKGNTVAVKIIRNNEVMYKTGLRELEVLRKLNEADKEDKYHCLRLFRTFKHHNHLCLVFENLSMNLRELLKKYGQKDGLHLKAVRSYAQQLLLALRLLKKLEFVHADIKPDNILVNESKLTLKLCDFGSAGRVNEQELAPYLVSRFYRAPEIMLGVRHDYAIDLWSVAVTLYEVYTGKIMFPGRTNNHMLKLFTDVKGKYPNKLVRKSQFKDTHFDVNCNLLYQEVDKVTERNKITVLANLKPTRDLESELIAGQRLSRDQMDQIQAFRTLLDGMLILDPSKRTTCNEALKHPFFTIPIK”, the “soluble on expression in E. coli” value is “soluble”. For “MSLNAEEKKGLQRAIEEITEIAKGFGLDFYPMRYEICPAEIIYTFGAYGMPTRFSHWSFGKQFHKMKLHYDLGLSKIYELVINSDPCYAFLLDSNSLIQNKLIVAHVLAHCDFFKNNCRFQNTKRDMVESMAATAERIKHYEQVHGIKEVESFLDAILSIQEHIDPSLVRPKLQWSVDDEEEEIEEAATPYDDLWSLDEKKPKKQVKKSKKPFPPRPEKDILLFIEEHSRELEPWQRDILTMMREEMLYFWPQLETKIMNEGWASYWHQRIIRELDLTSDEAIEFAKLNAGVVQPSKTGINPYYLGLKIFEDIEKRYNNPTEEMKKMGVQPDSGREKMFEVREIESDISFIRNYLTKELVMREDLYLFQKQGRDYKIIDKQWKSVRDQLVSMRVNGGFPYLTVNDGDYMKNNELYIKHWYEGIELDLKYLEKVLPYLFQLWGRSVHIESVLEDKEVMFSYDGKGVHRRYLEGHHHHHH”, the “soluble on expression in E. coli” value is given as “not soluble”. For the sequence “MGSDKIHHHHHHIFSSCTDDFEKLNTSNIQVDPADLPFAAQCTEPMTYCYPPQQNMFQFWTNLTIDLYGGYFMTPNGNFTNGDMGENRGHSGGMYENYYLHIFNNTRRIIAQCDASGERGLSGVMRIVQAYGTLMTTDAYGPIPYSSILSGENEVYFEFDSQKDLYKAMLEDLSTAITDISAMGADEIAKLKSFDCWCNGDKDLWVKIANTMKLRMALRLSKRETEAGNAGMNLKAIATEAAQNTLATVNKDILIDKSLENEMWLMFNWGDCGFNANLVTIMSGTKDPRQPLYMTLNTGDIKNEAGTTTVAANSQYLGIRFASGLPAKPNSWGNFSGWIQGNNGSSYSMPLPIMKAAEAYFLLAEAKLRWDIGSESVKNLYENGIRVSMTNELAYRGAYAGIKEYPEGAVDAYINGTSTQIDYTDPIKAELSTPAVNKLSVKWDESASNEEKLERIITQKWLALFPLSTEGWAEQRRTGYPRFFPAFVNESNGAVNTEEGVRRVIYSSQAYDANAKGVEGGIKLLDEENSSKFGISGDKGGTHLWWDNADKGNF”, the “soluble on expression in E. coli” value is on record as “not soluble”. For “MSTAYEVQCRGLPWEATEQELRDFFGNNGIESLEIPRRNGRTSGDAKVVFTNEEDYNNALKKDREHLGSRYIEVFPAGGAPTRRGDRGERGDRGDRDHYRSRGAPPRDRYSDRGGPRSSGPDSIVRLRGLPFSVTSRDISDFLAPLPIVRDGILLPDQQRARPGGEAYVCFETMESVQIAKQRHMKNIGHRYIEVFEATHRDLSRFAEENDLRVPRFGPPPFASAPQTAPRGAYDPYSQPTDPYRNATDYRRAAEPEDPYARSRAPSVQDYGVRASYDPYTQPAAPVSSYPSQQQPSAGYYDNYAPKTAYESYGRERGPDPRDVRDPRDSRMPDPRDSRALSDPYAAESRYSEYGYESREPYWRGGSGGPPSIGGGVGGGGAPLAPTGRDPYSVGESWANGAGGPGGPPPVSSDRDRYGSGGYASEPYAQREAGGAMRRSEYGRPDDRYSKPEPYGYSRDRDYGAPQNQHFVLRMRGVPFRASEADVYDFFHPIRPNQVELLRDHQFQRPSGDARVIFYNRKDYDDALMKDKQYMGERYIEMIPDNGRY”, the “soluble on expression in E. coli” value is “not soluble”. With “MGSDKIHHHHHHMTSYVLTVSCPSKRGIVAALSGYLAEMGCNIVDSSQFDDLDTDRFFMRVSFISEQGASREKIEAGLAPIVDNFQMEIGLYDSTERVKVLLMVSRFGHCLNDLLYRWKIGALPIDIVGVVSNHFDYQKVVVNHDIPFHHIKVTKDNKPQAEAQLMELVQQTGTELIVLARYMQVLSDAMCQKMSGKIINIHHSFLPSFKGANPYKQAFERGVKLIGATAHYVTADLDEGPIIEQDVARVTHAQNAEDYVSIGRDVESQVLARAIHAHIHHRTFINGNKSVVFPASPGSYASERMG”, the “soluble on expression in E. coli” value is given as “not soluble”. With “RNVSFRMQPIRIPMGMIGGFIGGQIDEMISTSKDRRIDWSEVYSKDTLYGRGNSG” the entry was “soluble”; with “MGSDKIHHHHHHMSPEPNGDAVSIILETEGPMTAAPKTVRSVERTLQILELMNRAAVVRVQYLAEQIGLPAPTVVRLLETLVAAGYVRKIGRQAGYCVTEKVAALGAGHHGLPQVFDVAREAAEDLTRRTLWPTALATLDVDALVIRFSTIPMSPLSHYQSTINRRMTLLDYAHGRAYLGFCPTEERQHLVALLQQTAGSVEEARAIGERAQSVVALTRASGFGERTGNIQPETHSLALPLRMGAKLVGTLGITYFAKAKVDVSALKSDLRAAAEACTSGTAYRAPASSG”, “not soluble”; with “MHKSIAVFEVEGGNDKQFNGHRKDTLPIVDAIKEKGWHAEVVFYRPEWSEGLFEYVSQNFDGYISRVNPGNIPGGEKGYFDLLTKLSEAGLVGMSTPAEMMAYGAKDALVKLNDTDLVPSDTAAYYDVETFHNTFPTSLSYGERVLKQNRGSTGSGIWRVQLEDKELAASVAPGTALPLNTKLRCTEAVDNHTEIRELGEFMDFCDQYIVGDNGMLVDMRFMPRIVEGEIRILMVGPHPVFVVHKKPAAGGDNFSATLFSGAKYTYDKPEAWQELVDMFAAARPVIAEKLGGDNIPLIWTADFMLADGENGEDTYVLGEINCSCVGFTSELDMGIQELVAQEAVERVEKKHA”, “not soluble”. For “MASSASDGTHERSAFRLSPPVLSGAMGPFMHTGLYVAQSWRDYLGQQPDKLPIARPTIALAAQAFRDEIVLLGLKARRPVSNHRVFERISQEVAAGLEFYGNRRWLEKPSGFFAQPPPLTEVAVRKVKDRRRSFYRIFFDSGFTPHPGEPGSQRWLSYTANNREYALLLRHPEPRPWLVCVHGTEMGRAPLDLAVFRAWKLHDELGLNIVMPVLPMHGPRGQGLPKGAVFPGEDVLDDVHGTAQAVWDIRRLLSWIRSQEEESLIGLNGLSLGGYIASLVASLEEGLACAILGVPVADLIELLGRHCGLRHKDPRRHTVKMAEPIGRMISPLSLTPLVPMPGRFIYAGIADRLVHPREQVTRLWEHWGKPEIVWYPGGHTGFFQSRPVRRFVQAALEQSGLLDAPRTQRDRSA”, the “soluble on expression in E. coli” value is on record as “not soluble”. Take “MTGPTPTEAVDITVSVGGFKVGDQNYPINPKITFTNNTGQAIPGGTEFQFDIPVSAPDNAKDQSGGGLKVIASGHTRANNIGGLDGVMHRVSFSLPAWKDLPAGGTYELDMVYYLPISGPANYSVISGGKEFAFKFEQPDLPIGDLNAGTGGGGTTEPGSCDTAGLVTYPNLPQTDLEHHHHHH”: the “soluble on expression in E. coli” value was “soluble”. Turning to “SGEIKVSPDYNWFRSTVPLKKIIVDDDDSKIWSLYDAGPRSIRCPLIFLPPVSGTADVFFQQILALTGWGYRVIALQYPVYWDHLEFCDGFRKLLDHLQLDKVHLFGASLGGFLAQKFAEYTHKSPRVHSLILCNAFSDTSIFNQTWTANSFWLMPAFMLKKIVLGNFSSGPVDPMMADAIDFMVDRLESLGQSELASRLTLNCQNSYVEPHKIRDIPVTIMDIHLLQFHGTKYAAIDPSVVSAEELDVQKGQLDLSQEEP”, the “soluble on expression in E. coli” value is on record as “soluble”. Take “MATSAMFILDLKGKTIISRNYRGDIDMTAIDKFIHLLMEKEEEGSAAPVLTYQDTNFVFIKHTNIYLVSACRSNVNVTMILSFLYKCVEVFSEYFKDVEEESVRDNFVVIYELLDEMMDFGFPQTTESRILQEYITQEGQKLISAPRPPMAVTNAVSWRSEGIKYRKNEVFLDVIESVNMLASANGTVLQSEIVGSVKMRVYLTGMPELRLGLNDKVLFEGSGRGKSKSVELEDVKFHQCVRLSRFDTDRTISFIPPDGAFELMSYRLTTVVKPLIWIETSIERHSHSRVSFIIKAKSQFKRRSTANNVEIIIPVPSDADSPKFKTSIGSVKYTPEQSAFVWTIKNFPGGKEYLLTAHLSLPSVMSEESEGRPPIKVKFEIPYFTTSGIQVRYLKIIEKSGYQALPWVRYITQNGEYEMRMK”: the “soluble on expression in E. coli” value was “not soluble”. For “HRPKRIESAVISSFSPVINSPMRDYLGKGLDHLATHSRYDMGRLINDTIGKHLPSLFKRFNYRHVSTLDGHEYDQMHYHFSQILELDPDNYLTAGQQIKAPVLFINGAWDEYTSASDATQFSRYLQNCSFSTIEATGHFLDMEHKAACNDSKQALMKFLQ”, the “soluble on expression in E. coli” value was “not soluble”. The value for “MMKKEKELLVAIASQKGGVGKSVFTVLLASVLHYRKDVRVAVVDCDSPQHSIALMRERDMENVMKNDDLKVNLYRQYERIRKPAYPVIKSDPEKGVEDLRRYMDEKGETFDIVLFDLPGTLRSEGVVHTVAAMDYIFVPLKADNIVMQSSLQFTKVLEEELIAKGNCNLKGIRLFWNMVDRRGRKNLYDAWNRVIHRMGLRLLSSHIPNTLRYNKEADPVCKGVFRSTLFPPDPRQEKDSGLPELVEAAFFGRDPGITLL” was “not soluble”; that for “MQRMNFSSLIETFAVDFQLVLPSVEGAGKYIHGEWFPTNEEPKTVSGAIIPYDNRTIYQSGGTLTSSDRQLAYVGSIPLGSKIIDMGKEYKVESEEPYAEHYADVNLYRLKAVTNNAAN” was “not soluble”; that for “MAHHHHHHMKELVSSFLNNLSQVSSELSCCKNKKFHVDNVSLCGIEDVLHNRDRSSLIDKEKINTLMELYKNENIYESYEEYDIDKYEKIKNNNILKNMGGNKLNVCNACLFCNNNNSQNHMNKNKNVSENINNVIDLDDEILIANFPFNSLRDVENLTYTNSEHTLNNKEYSYIKNSIDLDFDQQIKNQKKNNNSKNSSHLYNEIVKEGEYDNDDSPNFDEDSSQFKFSVLNNIKNNIHNTKDELTNNYNIIKNTLNQDYEKNIDQKEKHDIIVDNMVNSVDYQNDMDTNIKTKKKKKNQAYSNFYAKSDLPSSNIDEGSCKGCKASDTSSEFFSVASGMKPNN” was “not soluble”. The value for “MGSDKIHHHHHHMSARNETGYERVLVPVGDKSDPNMLTELSSILVDPRRGAVRFTHVTTDRSFVGSQENWRTGSDSVAESQHTLREEGIESTGTIRTASSALDGILEEAEEYEADAILIGWTDKDSVSSLVDKLLRKAGCDVIVFSADRDPIDTDSILVPVVVKPDANRLQMLAIMSQRTGASITFTYVTGDEGTDEEGRGLLDQSAERLAEYGVQAETELKSASSAVDALGQLSEDYDVMVIGTSRGWWLRKTLFGRKTDKIAQEAQCSLLMHKWQGEVPPES” was “not soluble”.

The record behind these values is the DeepSol protein solubility set.
